Test results from patent US20200399712A1, “COMPOSITIONS AND METHODS FOR THE DIAGNOSIS AND DETECTION OF TUMORS AND CANCER PROGNOSIS” (priority 2018, published 2020).

Key:
HPV-16 = experiment: qPCR sensitivity against HPV-HNSCC tumor samples diluted among 10 ng normal human DNA; conditions: for sensitivity under 100 cells / sensitivity under single cells / sensitivity under 10 cells: 32 HPV-HNSCC tumor samples; for sensitivity under single cells: 6.6 pg DNA; for sensitivity under 10 cells: 66 pg DNA; for Sensitivity, 1 cell / Sensitivity, 3 cells / Sensitivity, 10 cells / Sensitivity, 30 cells / Sensitivity, 100 cells: tumor DNA dilution, fraction of 32 samples
HPV-16 genome = experiment: qPCR sensitivity against HPV-16 copy number (known-copy HPV-16 DNA among 10 ng normal human DNA); conditions: for reaction under 30 copies of HPV-16 genome: among 10 ng normal DNA, triplicate qPCR; for number of reactions against 10 HPV-16 copies / number of reactions under 30 HPV-16 copies: samples tested 3 times, 10 ng DNA from healthy individual
Description: All samples were run in triplicates.
To seek the most promising primer-probe set in the viewpoint of sensitivity, Applicants evaluated the sensitivity analysis for these candidate primer-probe sets. […] Therefore, the sensitivity of E6 (FIG. 3A) and E7 (FIG. 3B) was also 30 copies. […] The candidate primer-probe sets were the “Min-4” (FIG. 3C), “Min-5” (FIG. 3D), “Min-6” (FIG. 3E), “Max-10” (FIG. 3F), “E6-11” (FIG. 3G), “E6-13” (FIG. 3H), respectively.
In addition, Applicants performed sensitivity analysis to identify the most sensitive primer/probe set from among the candidate sets.
To validate the function of primer/probe sets, Applicants calculated the slope of delta Rn against cycle threshold for HPV-16 copy number detection from defined HPV copy number DNA derived from CaSki cell line.

B1: BR E6-1: HPV-16 E6 region (172-373 bp) primer/probe set, SEQ ID NO: 58-60 (nucleic acid)
DNA 1: CAGTTACTGCGACGTGAGGT
DNA 2: ACAGCATATGGATTCCCATCTC
DNA 3: ACTTTGCTTTTCGGGATTTATGCATAGTA
modifications: chemistry not given here
- sensitivity under 100 cells (HPV-16): 87.5%
- sensitivity under single cells (HPV-16): 3.1%
- sensitivity under 10 cells (HPV-16): 46.9%
- Threshold of tumor cell numbers for HPV-16 detection (HPV-16; Sample # 1): 150.0 tumor cells
- Threshold of tumor cell numbers for HPV-16 detection (HPV-16; Sample # 2): 30.0 tumor cells
- Threshold of tumor cell numbers for HPV-16 detection (HPV-16; Sample # 3): 150.0 tumor cells
- Threshold of tumor cell numbers for HPV-16 detection (HPV-16; Sample # 4): 60.0 tumor cells
- Threshold of tumor cell numbers for HPV-16 detection (HPV-16; Sample # 5): 30.0 tumor cells
- Threshold of tumor cell numbers for HPV-16 detection (HPV-16; Sample # 6): 60.0 tumor cells
- Threshold of tumor cell numbers for HPV-16 detection (HPV-16; Sample # 7): 30.0 tumor cells
- Threshold of tumor cell numbers for HPV-16 detection (HPV-16; Sample # 8): 150.0 tumor cells
- Threshold of tumor cell numbers for HPV-16 detection (HPV-16; Sample # 9): 30.0 tumor cells
- Threshold of tumor cell numbers for HPV-16 detection (HPV-16; Sample # 10): 30.0 tumor cells
- Threshold of tumor cell numbers for HPV-16 detection (HPV-16; Sample # 11): 30.0 tumor cells
- Threshold of tumor cell numbers for HPV-16 detection (HPV-16; Sample # 12): 15.0 tumor cells
- Threshold of tumor cell numbers for HPV-16 detection (HPV-16; Sample # 13): 60.0 tumor cells
- Threshold of tumor cell numbers for HPV-16 detection (HPV-16; Sample # 14): 60.0 tumor cells
- Threshold of tumor cell numbers for HPV-16 detection (HPV-16; Sample # 15): 30.0 tumor cells
- Threshold of tumor cell numbers for HPV-16 detection (HPV-16; Sample # 16): 6.0 tumor cells
- Threshold of tumor cell numbers for HPV-16 detection (HPV-16; Sample # 17): 6.0 tumor cells
- Threshold of tumor cell numbers for HPV-16 detection (HPV-16; Sample # 18): 1.2 tumor cells
- Threshold of tumor cell numbers for HPV-16 detection (HPV-16; Sample # 19): 6.0 tumor cells
- Threshold of tumor cell numbers for HPV-16 detection (HPV-16; Sample # 20): 1.2 tumor cells
- Threshold of tumor cell numbers for HPV-16 detection (HPV-16; Sample # 21): 1.2 tumor cells
- Threshold of tumor cell numbers for HPV-16 detection (HPV-16; Sample # 22): 6.0 tumor cells
- Threshold of tumor cell numbers for HPV-16 detection (HPV-16; Sample # 23): 1.2 tumor cells
- Threshold of tumor cell numbers for HPV-16 detection (HPV-16; Sample # 24): 1.2 tumor cells
- Threshold of tumor cell numbers for HPV-16 detection (HPV-16; Sample # 25): 1.2 tumor cells
- Threshold of tumor cell numbers for HPV-16 detection (HPV-16; Sample # 26): 1.2 tumor cells
- Threshold of tumor cell numbers for HPV-16 detection (HPV-16; Sample # 27): 1.0 tumor cells
- Threshold of tumor cell numbers for HPV-16 detection (HPV-16; Sample # 28): 1.0 tumor cells
- Threshold of tumor cell numbers for HPV-16 detection (HPV-16; Sample # 29): 1.0 tumor cells
- Threshold of tumor cell numbers for HPV-16 detection (HPV-16; Sample # 30): 150.0 tumor cells
- Threshold of tumor cell numbers for HPV-16 detection (HPV-16; Sample # 31): 0.6 tumor cells
- Threshold of tumor cell numbers for HPV-16 detection (HPV-16; Sample # 32): 15.0 tumor cells
- Sensitivity, 1 cell (HPV-16): 0.031
- Sensitivity, 3 cells (HPV-16): 0.344
- Sensitivity, 10 cells (HPV-16): 0.469
- Sensitivity, 30 cells (HPV-16): 0.750
- Sensitivity, 100 cells (HPV-16): 0.875
- reaction under 30 copies of HPV-16 genome (HPV-16 genome): consistently amplified
- reaction under 30 copies of HPV-16 genome (HPV-16 genome; listed as E6-11): react consistently
- number of reactions against 10 HPV-16 copies (HPV-16 genome): one
- number of reactions under 30 HPV-16 copies (HPV-16 genome): 3 reactions

B2: BR E1-6: HPV-16 E1 region primer/probe set, SEQ ID NO: 43-45 (nucleic acid)
DNA 1: ATGCACAATTGGCAGACACTAA
DNA 2: AATCCTTTACAATTTTTGCCTGTGA
DNA 3: AGTAATGCAAGTGCCTTTCTAAAAAGTA
modifications: chemistry not given here
- sensitivity under 100 cells (HPV-16): 87.5%
- sensitivity under single cells (HPV-16): 15.6%
- sensitivity under 10 cells (HPV-16): 62.5%
- Threshold of tumor cell numbers for HPV-16 detection (HPV-16; Sample # 1): 150.0 tumor cells
- Threshold of tumor cell numbers for HPV-16 detection (HPV-16; Sample # 2): 150.0 tumor cells
- Threshold of tumor cell numbers for HPV-16 detection (HPV-16; Sample # 3): 30.0 tumor cells
- Threshold of tumor cell numbers for HPV-16 detection (HPV-16; Sample # 4): 30.0 tumor cells
- Threshold of tumor cell numbers for HPV-16 detection (HPV-16; Sample # 5): 30.0 tumor cells
- Threshold of tumor cell numbers for HPV-16 detection (HPV-16; Sample # 6): 50.0 tumor cells
- Threshold of tumor cell numbers for HPV-16 detection (HPV-16; Sample # 7): 150.0 tumor cells
- Threshold of tumor cell numbers for HPV-16 detection (HPV-16; Sample # 8): 15.0 tumor cells
- Threshold of tumor cell numbers for HPV-16 detection (HPV-16; Sample # 9): 30.0 tumor cells
- Threshold of tumor cell numbers for HPV-16 detection (HPV-16; Sample # 10): 6.0 tumor cells
- Threshold of tumor cell numbers for HPV-16 detection (HPV-16; Sample # 11): 6.0 tumor cells
- Threshold of tumor cell numbers for HPV-16 detection (HPV-16; Sample # 12): 30.0 tumor cells
- Threshold of tumor cell numbers for HPV-16 detection (HPV-16; Sample # 13): 6.0 tumor cells
- Threshold of tumor cell numbers for HPV-16 detection (HPV-16; Sample # 14): 6.0 tumor cells
- Threshold of tumor cell numbers for HPV-16 detection (HPV-16; Sample # 15): 6.0 tumor cells
- Threshold of tumor cell numbers for HPV-16 detection (HPV-16; Sample # 16): 30.0 tumor cells
- Threshold of tumor cell numbers for HPV-16 detection (HPV-16; Sample # 17): 6.0 tumor cells
- Threshold of tumor cell numbers for HPV-16 detection (HPV-16; Sample # 18): 1.2 tumor cells
- Threshold of tumor cell numbers for HPV-16 detection (HPV-16; Sample # 19): 1.2 tumor cells
- Threshold of tumor cell numbers for HPV-16 detection (HPV-16; Sample # 20): 6.0 tumor cells
- Threshold of tumor cell numbers for HPV-16 detection (HPV-16; Sample # 21): 1.2 tumor cells
- Threshold of tumor cell numbers for HPV-16 detection (HPV-16; Sample # 22): 0.3 tumor cells
- Threshold of tumor cell numbers for HPV-16 detection (HPV-16; Sample # 23): 1.2 tumor cells
- Threshold of tumor cell numbers for HPV-16 detection (HPV-16; Sample # 24): 1.2 tumor cells
- Threshold of tumor cell numbers for HPV-16 detection (HPV-16; Sample # 25): 1.2 tumor cells
- Threshold of tumor cell numbers for HPV-16 detection (HPV-16; Sample # 26): 0.3 tumor cells
- Threshold of tumor cell numbers for HPV-16 detection (HPV-16; Sample # 27): 0.6 tumor cells
- Threshold of tumor cell numbers for HPV-16 detection (HPV-16; Sample # 28): 0.6 tumor cells
- Threshold of tumor cell numbers for HPV-16 detection (HPV-16; Sample # 29): 3.0 tumor cells
- Threshold of tumor cell numbers for HPV-16 detection (HPV-16; Sample # 30): 150.0 tumor cells
- Threshold of tumor cell numbers for HPV-16 detection (HPV-16; Sample # 31): 0.6 tumor cells
- Threshold of tumor cell numbers for HPV-16 detection (HPV-16; Sample # 32): 9.0 tumor cells
- Sensitivity, 1 cell (HPV-16): 0.156
- Sensitivity, 3 cells (HPV-16): 0.344
- Sensitivity, 10 cells (HPV-16): 0.625
- Sensitivity, 30 cells (HPV-16): 0.844
- Sensitivity, 100 cells (HPV-16): 0.875
- reaction under 30 copies of HPV-16 genome (HPV-16 genome): consistently amplified
- reaction under 30 copies of HPV-16 genome (HPV-16 genome; listed as Min-6): react consistently
- number of reactions against 10 HPV-16 copies (HPV-16 genome): 2 reactions
- number of reactions under 30 HPV-16 copies (HPV-16 genome): 3 reactions
